Assay results: patent US20140050738A1 (CANCER RESEARCH TECHNOLOGY, published 2014)

How the values were obtained:
[1] = molecular target: recombinant human TACE catalytic domain (Arg215-Val477-GlySer-His6) (human) (UniProt P78536); assay: cell-based or functional assay
[2] = molecular target: recombinant human TACE ectodomain (Arg215-Arg651) (human) (UniProt P78536); assay: cell-based or functional assay
[3] = molecular target: T1, recombinant human TACE ectodomain (Arg215-Arg651) (human, UniProt P78536 215-651); assay: cell-based or functional assay
T1 sequence (P78536 215-651): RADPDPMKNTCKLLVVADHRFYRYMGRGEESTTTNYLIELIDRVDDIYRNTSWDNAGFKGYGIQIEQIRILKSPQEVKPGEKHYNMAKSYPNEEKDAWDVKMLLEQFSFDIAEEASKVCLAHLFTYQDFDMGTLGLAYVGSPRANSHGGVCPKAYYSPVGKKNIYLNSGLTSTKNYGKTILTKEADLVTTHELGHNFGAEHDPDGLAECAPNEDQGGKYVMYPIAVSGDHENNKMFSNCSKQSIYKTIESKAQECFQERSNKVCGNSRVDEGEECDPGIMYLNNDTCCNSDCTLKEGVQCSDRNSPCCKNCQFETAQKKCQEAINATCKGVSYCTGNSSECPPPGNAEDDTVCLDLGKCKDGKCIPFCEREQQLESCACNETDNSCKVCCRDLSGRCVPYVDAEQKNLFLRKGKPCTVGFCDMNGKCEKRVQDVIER

[4] = molecular target: T2, recombinant human TACE catalytic domain (Arg215-Val477-GlySer-His6) (human, UniProt P78536 215-477); assay: cell-based or functional assay
T2 sequence (P78536 other isoform, or with tags, fused parts or gaps limits assumed): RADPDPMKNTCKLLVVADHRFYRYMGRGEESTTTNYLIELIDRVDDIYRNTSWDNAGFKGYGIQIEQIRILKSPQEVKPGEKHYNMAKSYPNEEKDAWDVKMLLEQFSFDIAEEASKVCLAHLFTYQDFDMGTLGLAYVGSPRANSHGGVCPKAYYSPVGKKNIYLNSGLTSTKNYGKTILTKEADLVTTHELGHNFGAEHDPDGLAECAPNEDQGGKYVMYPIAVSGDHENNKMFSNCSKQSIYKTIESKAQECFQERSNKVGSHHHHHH

[5] = molecular target: T1, recombinant human TACE ectodomain …; assay: inverted titration ELISA
[6] = molecular target: T2, recombinant human TACE catalytic domain …; assay: inverted titration ELISA
[7] = molecular target: T1, recombinant human TACE ectodomain …; assay: cell-based or functional assay; remark: listed apart in the source
[8] = molecular target: T2, recombinant human TACE catalytic domain …; assay: cell-based or functional assay; remark: listed apart in the source
[9] = molecular target: T1, recombinant human TACE ectodomain …; assay: SPR; ratio of the KD for the isolated catalytic domain to the KD for the ectodomain
Experimental: (§1) Results represent the mean values of blank-subtracted technical triplicates per concentration variable. All experiments were performed on a Biacore T100 (GE Healthcare) at 37° C. with a flow-rate of […]. Binding constants were calculated using Biacore T100 Evaluation Software (1:1 binding model; Rmax <200 RU; tc >1×10⁸; Chi²<0.5 RU².

[10] = molecular target: T1, recombinant human TACE ectodomain …; assay: SPR (Biacore T100, 37 C); FAb amine-coupled to CM5 chip, titrated TACE injected; 1:1 model
Experimental: as §1

[11] = molecular target: T2, recombinant human TACE catalytic domain …; assay: as above
Experimental: as §1

[12] = molecular target: T1, recombinant human TACE ectodomain …; assay: inverted titration ELISA; ratio of the EC50 for the catalytic domain to the EC50 for the ectodomain
[13] = molecular target: T1, recombinant human TACE ectodomain …; assay: competition ELISA: 100 nM immobilised TACE ectodomain pre-incubated with titrated D1(A12) FAb, then probed for N-TIMP-3 binding [panel A]
[14] = molecular target: T1, recombinant human TACE ectodomain …; assay: SPR (Biacore T100, 37 C): D1(A12) FAb amine-coupled to a CM5 chip, TACE ectodomain injected (traces labelled 0.25 to 6 nM) [panel C, lower right]
Experimental: as §1

[15] = molecular target: T2, recombinant human TACE catalytic domain …; assay: SPR (Biacore T100, 37 C): D1(A12) FAb amine-coupled to a CM5 chip, TACE catalytic domain injected (traces labelled 1 to 15 nM) [panel C, lower left]
Experimental: as §1

[16] = molecular target: cell surface TACE (human, UniProt P78536 215-824); assay: cell-based or functional assay
Sequence of cell surface TACE (P78536 215-824): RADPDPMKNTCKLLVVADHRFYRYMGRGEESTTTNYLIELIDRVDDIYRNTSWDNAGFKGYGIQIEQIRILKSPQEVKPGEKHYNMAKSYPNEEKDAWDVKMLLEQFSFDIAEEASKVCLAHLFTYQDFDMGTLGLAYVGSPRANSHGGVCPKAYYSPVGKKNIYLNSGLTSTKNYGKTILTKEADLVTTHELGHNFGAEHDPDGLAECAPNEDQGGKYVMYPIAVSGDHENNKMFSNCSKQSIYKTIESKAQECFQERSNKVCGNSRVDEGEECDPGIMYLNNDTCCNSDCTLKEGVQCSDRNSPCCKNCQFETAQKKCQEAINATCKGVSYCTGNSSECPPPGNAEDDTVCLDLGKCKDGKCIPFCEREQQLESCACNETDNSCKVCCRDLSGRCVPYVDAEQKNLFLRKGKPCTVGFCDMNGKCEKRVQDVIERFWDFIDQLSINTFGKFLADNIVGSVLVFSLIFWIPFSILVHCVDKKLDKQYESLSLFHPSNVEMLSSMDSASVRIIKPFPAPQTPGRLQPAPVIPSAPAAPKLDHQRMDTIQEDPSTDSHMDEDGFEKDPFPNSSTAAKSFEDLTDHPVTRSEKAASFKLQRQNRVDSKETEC

[17] = molecular target: T1, recombinant human TACE ectodomain …; assay: SPR (Biacore T100, 37 C); N-TIMP-3 amine-coupled to CM5 chip, titrated TACE injected; 1:1 model
Experimental: as §1

[18] = molecular target: T2, recombinant human TACE catalytic domain …; assay: as above
Experimental: as §1

[19] = molecular target: T1, recombinant human TACE ectodomain …; assay: competition ELISA: immobilised TACE ectodomain pre-incubated with titrated N-TIMP-3, then probed with D1(A12) FAb [panel B]
[20] = molecular target: T1, recombinant human TACE ectodomain …; assay: SPR (Biacore T100, 37 C): N-TIMP-3 amine-coupled to a CM5 chip, TACE ectodomain injected (traces labelled 5 to 50 nM) [panel C, upper right]
Experimental: as §1

[21] = molecular target: T2, recombinant human TACE catalytic domain …; assay: SPR (Biacore T100, 37 C): N-TIMP-3 amine-coupled to a CM5 chip, TACE catalytic domain injected (traces labelled 0.5 to 5 nM) [panel C, upper left]
Experimental: as §1

Sequence of recombinant human TACE catalytic domain (Arg215-Val477-GlySer-His6) (human) (P78536 other isoform, or with tags, fused parts or gaps limits assumed): as the sequence (P78536 other isoform, or with tags, fused parts or gaps limits assumed) above
Sequence of recombinant human TACE ectodomain (Arg215-Arg651) (human) (P78536 215-651): as the sequence (P78536 215-651) above

B1: D1(A12) scFv (scFv, part only; not given: linker and tags, not shown: small tags and cut ends)
scFv, part: EVQLVESGGGLVRPGGSLRLSCAASGFTFSSYAMSWVRQAPGKGLEWVSAISGSGGSTYYADSVKGRFTISRDNTKNSLYLQMTSLRADDTAFYYCVKDFGPGYGTGWFDYWGPGTLVTVSASDIQMTQSPSSLSASVGDRVTITCRASQSISSYLNWYQQKPGKAPKLLIHDASSLQSGVPSRFSGSGSGTDFTLTISSLQPEDFATYYCQQSFSIPLTFGGGTKMDIKR
- IC50, solution-phase QF-peptide assay (wild-type scFv) [1]: 2.3 nM
- IC50, solution-phase QF-peptide assay (wild-type scFv) [2]: 0.89 nM

B2: D1(A12) FAb (Fab, V domains shown)
VH: EVQLVESGGGLVRPGGSLRLSCAASGFTFSSYAMSWVRQAPGKGLEWVSAISGSGGSTYYADSVKGRFTISRDNTKNSLYLQMTSLRADDTAFYYCVKDFGPGYGTGWFDYWGPGTLVTVSA
VL: DIQMTQSPSSLSASVGDRVTITCRASQSISSYLNWYQQKPGKAPKLLIHDASSLQSGVPSRFSGSGSGTDFTLTISSLQPEDFATYYCQQSFSIPLTFGGGTKMDIKR
notes: Expressed in E. coli periplasm, purified on Protein G; also called monovalent D1(A12) human FAb
- IC50, cleavage of GST-TNF-α (SDS-PAGE densitometry) [3]: 73.9 nM
- ΔIC50 = IC50 Ecto:N-TIMP-3 / IC50 Ecto:D1(A12), QF-peptide assay [3]: 5.75 fold
- IC50, cleavage of GST-TNF-α (SDS-PAGE densitometry) [4]: 125 nM
- ΔIC50 = IC50 Cat:N-TIMP-3 / IC50 Cat:D1(A12), QF-peptide assay [4]: 1.35 fold
- EC50 [5]: 0.92 nM
- EC50 [6]: 11.1 nM
- Delta (IC50 ectodomain against IC50 catalytic domain) [7]: 0.8 fold
- IC50 (nM), QF-peptide assay [7]: 0.45 nM
- IC50 (nM), QF-peptide assay [8]: 0.54 nM
- ΔKD (KD Cat/KD Ecto) [9]: 11.3 fold
- Kd [10]: 0.461 nM
- Kd [11]: 5.21 nM
- ΔEC50 (EC50 Cat/EC50 Ecto) [12]: 12.1 fold
- IC50 (read off the curve) [13]: ~10 nM
- koff [14]: 0.00024 s⁻¹
- kon [14]: 530000 M⁻¹ s⁻¹
- koff [15]: 0.00058 s⁻¹
- kon [15]: 110000 M⁻¹ s⁻¹

B3: D1(A12) human IgG1 (antibody, V domains shown)
VH: EVQLVESGGGLVRPGGSLRLSCAASGFTFSSYAMSWVRQAPGKGLEWVSAISGSGGSTYYADSVKGRFTISRDNTKNSLYLQMTSLRADDTAFYYCVKDFGPGYGTGWFDYWGPGTLVTVSA
VL: DIQMTQSPSSLSASVGDRVTITCRASQSISSYLNWYQQKPGKAPKLLIHDASSLQSGVPSRFSGSGSGTDFTLTISSLQPEDFATYYCQQSFSIPLTFGGGTKMDIKR
- Delta (IC50 N-TIMP-3 against IC50 D1(A12) IgG1), Amphiregulin, PC3 [16]: 5.7 fold
- Delta (IC50 N-TIMP-3 against IC50 D1(A12) IgG1), HB-EGF-AP, HeLa [16]: 6 fold
- Delta (IC50 N-TIMP-3 against IC50 D1(A12) IgG1), TGF-α, IGROV-1 [16]: 4.7 fold
- Delta (IC50 N-TIMP-3 against IC50 D1(A12) IgG1), TNF-α, TOV21G [16]: 4.3 fold
- Delta (IC50 N-TIMP-3 against IC50 D1(A12) IgG1), TNFR1a, IGROV-1 [16]: 4.7 fold
- Delta, mean value of the five cell shedding assays [16]: 5.1 fold
- IC50 (nM), PMA-stimulated shedding of Amphiregulin from PC3 cells [16]: 9.3 nM
- IC50 (nM), PMA-stimulated shedding of HB-EGF-AP from HeLa cells [16]: 7.9 nM
- IC50 (nM), PMA-stimulated shedding of TGF-α from IGROV-1 cells [16]: 9.4 nM
- IC50 (nM), PMA-stimulated shedding of TNF-α from TOV21G cells [16]: 11.2 nM
- IC50 (nM), mean value of the five cell shedding assays [16]: 9.6 nM
- IC50 (nM), shedding of TNFR1a from IGROV-1 cells [16]: 10.4 nM

B4: N-TIMP-3 (other, UniProt P35625 24-144, looked up)
chain: CTCSPSHPQDAFCNSDIVIRAKVVGKKLVKEGPFGTLVYTIKQMKMYRGFTKMPHVQYIHTEASESLCGLKLEVNKYQYLLTGRVYDGKMYTGLCNFVERWDQLTLSQRKGLNYRYHLGCN
notes: domain: N-terminal fragment; also called amino-terminal domain of TIMP-3
- IC50, quenched-fluorescent (QF) peptide cleavage assay [3]: 3.2 nM
- Delta (IC50 ectodomain against IC50 catalytic domain) [7]: 5.2 fold
- IC50 (nM), QF-peptide assay [7]: 3.1 nM
- IC50 (nM), QF-peptide assay [8]: 0.6 nM
- IC50 (nM), PMA-stimulated shedding of Amphiregulin from PC3 cells [16]: 53.3 nM
- IC50 (nM), PMA-stimulated shedding of HB-EGF-AP from HeLa cells [16]: 47.3 nM
- IC50 (nM), PMA-stimulated shedding of TGF-α from IGROV-1 cells [16]: 44.5 nM
- IC50 (nM), PMA-stimulated shedding of TNF-α from TOV21G cells [16]: 48.5 nM
- IC50 (nM), mean value of the five cell shedding assays [16]: 48.6 nM
- IC50 (nM), shedding of TNFR1a from IGROV-1 cells [16]: 49.5 nM
- ΔKD (KD Cat/KD Ecto) [9]: 0.03 fold
- Kd [17]: 7.22 nM
- Kd [18]: 0.211 nM
- IC50 (read off the curve) [19]: ~20 nM
- koff [20]: 5.2e-05 s⁻¹
- kon [20]: 7200 M⁻¹ s⁻¹
- koff [21]: 2.1e-05 s⁻¹
- kon [21]: 100000 M⁻¹ s⁻¹
